These results are taken from article PMC9603430, “Folding Mechanism and Aggregation Propensity of the KH0 Domain of FMRP and Its R138Q Pathological Variant” (International Journal of Molecular Sciences, 2022).

This data set concerns the molecule itself. The data set can be described thus: thioflavin T fluorescence; 20 μM protein pre-incubated at 70 °C for 10 min, stoichiometric ThT, 20 mM sodium phosphate pH 7.2, 100 mM NaCl; self-association into fibrillar aggregates.

B1: KH0 domain of FMRP, R138Q pathological variant, res 122-205 (domain or fragment)
chain: not shown
notes: KH0 domain of human FMRP, residues 122-205, Uniprot Q06787, with the missense mutation R138Q found in FXS patients; Made by site-directed mutagenesis of the KH0 construct; the histidine tag was removed by thrombin for the fibrillation/aggregation experiments; also called KH0-R138Q; variant protein; source: E. coli BL-21 (DE3), purified (HisTrap FF, thrombin cleavage, Superdex75 size exclusion)
Consider B1, for which the binding result is on record as “binds”.
